# In the supplement of paper PMC9112550, “Optimization of the antimicrobial peptide Bac7 by deep mutational scanning” (BMC Biology, 2022):
# Test system: Escherichia coli TOP10
# Test: shrunken log2 fold change of peptide-encoding DNA abundance (4.5 h post-induction vs induction); higher = less antimicrobial activity (less host growth inhibition)
# Conditions: time post-induction: 4.5 h; library: site-saturation at positions 5, 18, 19, 20
# 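Note: peptides expressed intracellularly from a pBAD plasmid library in pooled LB shake-flask culture, induced with 0.3% L-arabinose, DNA abundance read by NGS, three biological replicates, DESeq2 with apeglm shrinkage.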
row,Sequence,shrunken log2 fold change
1,RRIRFRPPRLPRPRPRPLLTPRP,-0.166
2,RRIRFRPPRLPRPRPRPLMMPRP,-0.347
3,RRIRFRPPRLPRPRPRPLNEPRP,-0.226
4,RRIRFRPPRLPRPRPRPLNLPRP,-0.542
5,RRIRFRPPRLPRPRPRPLNVPRP,-0.345
6,RRIRFRPPRLPRPRPRPLPAPRP,0.51
7,RRIRFRPPRLPRPRPRPLPCPRP,-0.199
8,RRIRFRPPRLPRPRPRPLPPPRP,0.828
9,RRIRFRPPRLPRPRPRPLQGPRP,0.0475
10,RRIRFRPPRLPRPRPRPLQMPRP,0.236
11,RRIRFRPPRLPRPRPRPLQRPRP,0.071
12,RRIRFRPPRLPRPRPRPLRFPRP,0.186
13,RRIRFRPPRLPRPRPRPLRNPRP,0.514
14,RRIRFRPPRLPRPRPRPLRPPRP,0.932
15,RRIRFRPPRLPRPRPRPLRTPRP,0.703
16,RRIRFRPPRLPRPRPRPLRVPRP,-0.108
17,RRIRFRPPRLPRPRPRPLTCPRP,-0.182
18,RRIRFRPPRLPRPRPRPLVLPRP,-0.251
19,RRIRFRPPRLPRPRPRPLWNPRP,-0.89
20,RRIRFRPPRLPRPRPRPLYSPRP,-0.211
21,RRIRFRPPRLPRPRPRPLYWPRP,-0.319
22,RRIRFRPPRLPRPRPRPMCGPRP,-0.164
23,RRIRFRPPRLPRPRPRPMCNPRP,-0.24
24,RRIRFRPPRLPRPRPRPMDGPRP,-0.0177
25,RRIRFRPPRLPRPRPRPMDWPRP,0.314

row,Sequence,shrunken log2 fold change
1,RRIRFRPPRLPRPRPRPMENPRP,-0.0803
2,RRIRFRPPRLPRPRPRPMFKPRP,-0.581
3,RRIRFRPPRLPRPRPRPMGMPRP,-0.0492
4,RRIRFRPPRLPRPRPRPMKHPRP,-0.149
5,RRIRFRPPRLPRPRPRPMKKPRP,-0.0398
6,RRIRFRPPRLPRPRPRPMLRPRP,0.0268
7,RRIRFRPPRLPRPRPRPMMFPRP,0.126
8,RRIRFRPPRLPRPRPRPMNAPRP,-0.054
9,RRIRFRPPRLPRPRPRPMNMPRP,-0.546
10,RRIRFRPPRLPRPRPRPMNPPRP,-0.0531
11,RRIRFRPPRLPRPRPRPMPCPRP,-0.557
12,RRIRFRPPRLPRPRPRPMPEPRP,-0.0117
13,RRIRFRPPRLPRPRPRPMPGPRP,-0.0263
14,RRIRFRPPRLPRPRPRPMPIPRP,0.0193
15,RRIRFRPPRLPRPRPRPMQRPRP,0.226
16,RRIRFRPPRLPRPRPRPMTPPRP,-0.202
17,RRIRFRPPRLPRPRPRPMWAPRP,0.0936
18,RRIRFRPPRLPRPRPRPMWHPRP,0.0814
19,RRIRFRPPRLPRPRPRPMWIPRP,-0.106
20,RRIRFRPPRLPRPRPRPMWQPRP,-0.00366
21,RRIRFRPPRLPRPRPRPNAMPRP,-0.191
22,RRIRFRPPRLPRPRPRPNARPRP,0.241
23,RRIRFRPPRLPRPRPRPNASPRP,-0.304
24,RRIRFRPPRLPRPRPRPNDFPRP,-0.228
25,RRIRFRPPRLPRPRPRPNDQPRP,-0.0705

row,Sequence,shrunken log2 fold change
1,RRIRFRPPRLPRPRPRPNFAPRP,-0.125
2,RRIRFRPPRLPRPRPRPNFVPRP,-0.269
3,RRIRFRPPRLPRPRPRPNFWPRP,0.15
4,RRIRFRPPRLPRPRPRPNGIPRP,-0.286
5,RRIRFRPPRLPRPRPRPNGQPRP,-0.0712
6,RRIRFRPPRLPRPRPRPNKIPRP,-0.538
7,RRIRFRPPRLPRPRPRPNKSPRP,-0.67
8,RRIRFRPPRLPRPRPRPNMFPRP,-0.259
9,RRIRFRPPRLPRPRPRPNMVPRP,-0.124
10,RRIRFRPPRLPRPRPRPNNWPRP,-0.369
11,RRIRFRPPRLPRPRPRPNNYPRP,-0.539
12,RRIRFRPPRLPRPRPRPNPRPRP,0.427
13,RRIRFRPPRLPRPRPRPNPYPRP,-0.238
14,RRIRFRPPRLPRPRPRPNQAPRP,0.138
15,RRIRFRPPRLPRPRPRPNQIPRP,-0.23
16,RRIRFRPPRLPRPRPRPNQKPRP,-0.159
17,RRIRFRPPRLPRPRPRPNRQPRP,-0.564
18,RRIRFRPPRLPRPRPRPNTVPRP,-0.363
19,RRIRFRPPRLPRPRPRPNVCPRP,-0.0089
20,RRIRFRPPRLPRPRPRPNVGPRP,-0.0278
21,RRIRFRPPRLPRPRPRPNWCPRP,-0.107
22,RRIRFRPPRLPRPRPRPNWTPRP,-0.00237
23,RRIRFRPPRLPRPRPRPNWYPRP,-0.542
24,RRIRFRPPRLPRPRPRPNYIPRP,-0.587
25,RRIRFRPPRLPRPRPRPNYVPRP,-0.492
